Laboratory results published in article PMC8138766, “Defining steps in RAVE-catalyzed V-ATPase assembly using purified RAVE and V-ATPase subcomplexes” (The Journal of Biological Chemistry, 2021).
Values joined by “and” are separate entries in the source; they are usually repeats but may differ in a detail not shown here. Equal entries are not always repeated.

Target: RAVE–V1 complex (yeast | yeast (endogenous), UniProt P47104 1-1357; Q03956 1-351; P52286 1-194; P16140 1-517; P32610 1-256; P22203 …, VMA1 intein (284-737) spliced out; Rav2 C-terminal FLAG and Skp1 C-terminal 6xGly-6xHis tags omitted; subunit C (Vma5) only substoichiometric, so omitted; V1 copy numbers (A3B3DE3FG3H) and RAVE 1:1:1)
Experiment: BLI; Octet RED384, 22 °C, PBS or TBSE with 0.5 mg/ml BSA; MBP-C (5 μg/ml) captured by anti-MBP antibody on anti-mouse IgG sensors; RAVE–V1 or RAVE in solution at varied concentrations, 2400 s association and 2400 s dissociation; global single-site fit
Conditions: both partners purified

Kd: 13.6 nM and 18.1 nM
B1: maltose-binding protein (MBP)–tagged subunit C (natural protein, yeast, UniProt P31412 1-392, looked up)
chain: MATALYTANDFILISLPQNAQPVTAPGSKTDSWFNETLIGGRAFVSDFKIPEFKIGSLDTLIVESEELSKVDNQIGASIGKIIEILQGLNETSTNAYRTLPINNMPVPEYLENFQWQTRKFKLDKSIKDLITLISNESSQLDADVRATYANYNSAKTNLAAAERKKTGDLSVRSLHDIVKPEDFVLNSEHLTTVLVAVPKSLKSDFEKSYETLSKNVVPASASVIAEDAEYVLFNVHLFKKNVQEFTTAAREKKFIPREFNYSEELIDQLKKEHDSAASLEQSLRVQLVRLAKTAYVDVFINWFHIKALRVYVESVLRYGLPPHFNIKIIAVPPKNLSKCKSELIDAFGFLGGNAFMKDKKGKINKQDTSLHQYASLVDTEYEPFVMYIINL
notes: V-ATPase V1 subunit C (Vma5), yeast; MBP was not cleaved; also called MBP-C; expressed subunit C; source: E. coli Rosetta2, purified (amylose column)
